We go through 5 substances from patent US11389568B2, “Tyrosine peptide cross-linked biocompatible hydrogel and method of production” (SEOUL NATIONAL UNIVERSITY R&DB FOUNDATION, priority 2016, dated 2022).

One data set deals with fibroblasts. Briefly: Cytotoxicity test by MTT assay. It is filed as cell-based. The conditions noted are these: riboflavin 0.1 μM-10 mM, YC7 0.1 μM-1 mM, 24 hr at 37° C.
Data set [1] is described as follows: Storage modulus (G′) by rheometer. It is filed as physicochemical. The conditions noted are these: for storage modulus (G′), comparison in words: at 30 rad/s. The procedure:
The crosslinking time and storage modulus (G′) were analyzed using a rheometer. Hydrogel samples with 20 mm diameter and 5 mm thickness were prepared. The crosslinking time was measured over time at an oscillation frequency of 1 Hz and a stress sweep of 10 Pa. The storage modulus was measured at an oscillation frequency of 1 Hz and a stress sweep of 1-100 Pa. All measurements were performed in triplicate and averaged.
Specifically, the storage modulus G′ was obtained by oscillatory shear measurements at room temperature using a constant stress rheometer (Discovery Hybrid Rheometer-3 from TA Instruments, USA). For the measurements, hydrogel samples with a defined shape of 20 mm diameter and 5 mm thickness were prepared. The cured hydrogel was placed on a lower rheometer stage, and an upper rheometer fixture (diameter 20 mm) was lowered until it made contact with the top surface of the sample. The value of G′ was then measured at oscillation frequency 1 Hz in a stress sweep test of 1-100 Pa. This stress sweep was performed in order to determine the limit of the linear viscoelastic range. All the G′ measurements were obtained in triplicate. Error bars in figures represent the standard deviation from the mean value (see FIGS. 7 and 9).
Specifically, it is well known that the mechanical properties of hydrogels are closely related to the crosslinking density. The storage modulus (G′) measured by rheological analysis is a reliable value representing the rigidity of the subjected hydrogel. The G′ of HA-Ty hydrogel without any peptide addition was 156.6 Pa at a strain of 1% at 30 rad/s (see FIG. 10).

Data set [2] can be described thus: Solubility of the peptide in hydrogel preparation. Type of data set: physicochemical.
Data set [3] in a line: Swelling test of lyophilized hydrogels in distilled water. It is filed as physicochemical. Particulars: distilled water at 25° C. How it is done: Swelling and degradation tests on the hydrogels were conducted by the following procedures. First, HA hydrogels were photocrosslinked with different peptide sequences (YYACAYY (SEQ ID: 4), di-YYACAYY (SEQ ID: 5), YYAYY (SEQ ID: 7), YYCYY (SEQ ID; 8), and YYAHAYY (SEQ ID: 6), 0.1 mM each). Swelling experiments were performed by measuring the increase in weight of the lyophilized hydrogels. Lyophilized hydrogels were placed in 1 mL distilled water at 25° C. The swelling ratio (S %) of hydrogels in distilled water was calculated using S %=[(Wt−W0]/W0)]100, where Wt is the weight of the swollen hydrogel at time t, and W0 is the weight of the dry gel at time 0. Degradation tests were performed by measuring the weights of hydrogels in PBS containing 0.01 mg/mL hyaluronidase at different time points.

Ends that are not written are not given here.

Description for fibroblasts: To investigate the biocompatibility of the hydrogels, fibroblasts were used in a cytotoxicity test. Fibroblasts were seeded with the density of 4×10^4/well in 24 well plates. […] Finally, cell toxicity was evaluated by MTT assay. Fibroblasts were grown with the density of 1×10^5/well in 12 well dishes to test their proliferation in different hydrogels. The grown cells area was scratched using pipette tips to create a wound-like environment and the hydrogels were added to 12 transwells, which were then placed in the dishes where cells had been grown. The proliferation effect of cells was evaluated depending on the degree of cell filling in the scratches.

Regarding YYACAYY [YC7, YYACAYY], the cytotoxicity entry in the data set with fibroblasts is “no cytotoxicity”.
Regarding “YYAHAYY [YH7, tyrosine-based peptide; the code also labels the HA-Ty hydrogel photocrosslinked with it]”, the “storage modulus (G′), comparison in words” value (from here on “storage modulus … in words”) in data set [1] is “almost the same G′ as HA-Ty”.
Take “YYAYY [YA5, tyrosine-based peptide; the code also labels the HA-Ty hydrogel photocrosslinked with it]”: in data set [1], the “storage modulus … in words” value is listed as “higher than that of YH7”.
On to “YYCYY [YC5, tyrosine-based peptide; the code also labels the HA-Ty hydrogel photocrosslinked with it]”, for which the “storage modulus … in words” value in data set [1] is listed as “higher than that of YH7”.
In the case of “di-YYACAYY (YYACAYYYYACAYY; cysteine pairing not given here; also: dimer of YYACAYY) [DYC7, tyrosine-based peptide; the code also labels the HA-Ty hydrogel photocrosslinked with it]”, in data set [2], the solubility entry was “partial insolubility”. Moreover, the “swelling ratio, comparison in words” value in data set [3] was “slightly higher than that of YC7”. The “storage modulus … in words” value in data set [1] was “highest G′”. Moreover, the “storage modulus (G′)” value in data set [1] (strain of 1% at 30 rad/s, peptide 0.1 mM) is 297.6 Pa.
